In the DeepSol protein solubility set:

Assay: soluble on expression in E. coli; label from the status in PepcDB or PDB records

Soluble on expression in E. coli, not soluble:
MGSDKIHHHHHHMRKITLRSKLDGREIVFEENQNLFDIAREYQKYYRYKILAARVNNRIIELFRTPDRSGELEFLDLTDPDGLRIYQRGLVFLASLAVRKLNSEWRLKVLHSLGKGIYCEIYKGNELIVPDQNQVFAIKDKMRELVEKDLPIEKRTFYKDEAREILMKEGLVKTVNLFKYRKKRTVKLYHCDGFWAYFYGYLPPSTGRIDVFDVQPYNQGLVLVHPDPKTRELPVIHMPKLSQVFLEYARWLNVLELEYVSDLNDIIARGERHVADLMLLSEALHEKKISDIADEIAKDKRKRLILIAGPSSSGKTTFAKRLSLQLRVNGLKPVAISLDDYFVDREKTPRDENGNYDFDSIEALDIELFNRNLQDLLAGKEVVLPKFNFKTGKRMRGPTLKLEKDNIIIVEGIHGLNERLTASIPKEQKFKIYVSALTQLNIDDHNRVTTTDTRLIRRIVRDYKFRGHTAYDTLKMWPNVRKGEERNIFPFQEEADVMFNSALVYEIPVLRIFAEPLLVQVPEDVPEYSEALRLLKLLDFFLPITNIEDIPDKSILREFIGRSIFKY
MGSDKIHHHHHHMRMAQVVLENVTKVYENKVVAVKNANLVVEDKEFVVLLGPSGCGKTTTLRMIAGLEEITDGKIYIDGKVVNDVEPKDRDIAMVFQNYALYPHMTVYENMAFGLKLRKYPKDEIDRRVREAAKILGIENLLDRKPRQLSGGQRQRVAVGRAIVRNPKVFLFDEPLSNLDAKLRVQMRSELKKLHHRLQATIIYVTHDQVEAMTMADKIVVMKDGEIQQIGTPHEIYNSPANVFVAGFIGSPPMNFVNARVVRGEGGLWIQASGFKVKVPKEFEDKLANYIDKEIIFGIRPEDIYDKLFALAPSPENTITGVVDVVEPLGSETILHVKVGDDLIVASVNPRTQAKEEQKIDLVLDMTRMHAFDKETEKAII
MGSDKIHHHHHHMRNASIEQYDATPRAVVAMGTDYPDGYLLPRHRHRRAQLLYGASGVMQVRTGDAGWVVPPQRAVWIPPGVEHEVRMLGVSTRSLYIEPGSAMAMPAHCQVLAVSPLLRQLLLAAVDMPLEYDTEGRDGALATLLLHELAAAETLPLHVPLPPEPRWLALCEAFLVEPDIRASAERWAGLLHTSLRSFNRTFRRYTGLSFGAWKQRACVVQALARLAGGETVTAIALDCGYQSPAAFSTMFRRVLGQPPSAFQAGALRSPGGP
MGSDKIHHHHHHMRNCIIAQSGGPTAVINASAVGIYEKNLETKYFDKVYFGINGIEGILNKNIIDSDSLNKDNVLNLKQTPSSGLGSCRYKLADYKINSYDYDRVINILDEYEIDTLFYIGGNDSMDTVMKFSQYCKNTTCKIKFIGIPKTIDNDLLGTDNCPGFGSAAKLISTLIMETYLDFSIYKNNGIFIVETMGRDTGWLAASSSLARLNDTPLVDLIYLPEIDFYEDKFIEDVRKIFKEKNKAYIVASEGIRDKYGNFICEQKTSAHDKFGHSQLGGVSNYLKNLIVSSSITTRVKTLELGVIQRCAMHLASDTDLKQAAEVGAYGIELSKKGYTGVMAIINRTCNNPYKYEVSHTDISKIANKTKYFPKEWINEECNYITDEALNYLYPLIQGKPDIKYKNGLPYFSIIY
MGSDKIHHHHHHMRPKILFVVNVDWFFVSHRLPIAVAAQNVGYDVHIACQVTDKKQELEGYGFTVHSISLDRSGTSVLKEFQTMLSIYRLIKKISPALMHMITVKPVIYAGIAARILGVSKVASISGLGFIFIAEGFKSKLLKSLITILYKLALNDGKSRVIFQNDSDKGLFIRRGIISDSNTLLVRGSGVDLDKYQVKPEPESYPVIVLLARLLIDKGVLEFVQAAEILKSKGVPCKMVLAGDTDENPKSVSKNQITDWVNKGIVEYWGYSKDVNSTYANCHIAVLPSYREGLPKSLIEAAACGRAVITTDVPGCRDAITPNKTGLLVPVKSSLELALAIETLCNDSKLRQSLGQEGRQLAEQAFDIKSVIQIHLNLYADLLKGKPSV
MGSDKIHHHHHHMRRDTFAGRRTQQPACQIHRFARTDKCYRHQKNPAERRHFGLSQCPHRESIVFVYTKMYILLMDVDRVQVRAFRANIAEYLEQALQGQRIVIERHGGPVAALVPLADLYQITRKEKAMGHRIALNNVSGGEGKTFLTFHLAFALADLGFRVAVLDCDPQASLTKRFGLHDEEGAHQSGAETILPVFEVDDDPALPSPVTVEGIDVWPANRQLIDADTRIMTNMMRLGNLGEALDRIQDQYDFILLDTRPNVSPLLTASTAAARLFLVPIGAHKGLENLDELLRLVKLARKQDRSARIAFFIPNKVTSTRMGKNVLQSISAYTEVAPISPPVRQATIGPEAELFRTGITRHAPKSPLAGDIRTLANALVKATEQVEDAQ
MGSDKIHHHHHHMRRKIPSSASLQAFDAAARHGNFARAAEELSLTEGAISRQIARLEALLNCKLFDRMGSRVKLNPVGAHYAHHVRETLDRLERDTQYIMGMPEGSKSLDIAVLPTFSNRWLIPRLSGFNSLFPDITLNIAARTDPFILPGSGFDAVIHFEHSAWTGMRMQFLFQENLLPVCNPALLTNNDVNRQLNELPRIHRRQNPEAWHHYARESGIRLDNPAQGVRYDLHEMTIAAVIAGHGVALVPRMYVENELSCGMLVSPWPASDCLSKKFCLVKPMETGINEDALESFERWLLAEMNTLTSLNAER
MGSDKIHHHHHHMRRVSIYELDPGMIVARAIFNSEERVLLHAGVELNEKYIHGLQKAGVMSVYIRDELFDESDAVSDIISEKTRLKAIRTLKESFNLLEKKHQLNLHAVKNTVDEIIDEIIANPNTLVSLTDIRSFDDYTYAHSVNVGVLSIMSGVSLNYERSQLKELGVGALLHDIGKIKIDKNILNKPDDLSPEEFTEIKQHSKAGFDILRQHSGLSLLSAHIAFQHHERWDGQGYPRQLSGEEIHEYARIVAVADVYDALVADRPYRPAYSVTQAISILKRMTGLFLDPQCVKAFLNNIAVYPLGCLLELNTGELGAVIDINRKTPAQPVVRVLYDRNWRLLTPYELDLSKNSALVVKNVLSERQIKELKKNL
MGSDKIHHHHHHMRTDMTIEQNKNRRSAASGCAIHCHDCSMGTLCIPFTLNANELDQLDDIIERKKPIQKGEQIFKSGDPLKSLFAIRSGTIKSYTITEQGDEQITGFHLAGDVIGFDGIHAQSHQSFAQALETSMVCEIPFNILDELSGTMPKLRQQIMRLMSNEIMSDQEMILLLSKKNAEERLAAFISNLANRFGNRGFSAKEFRLTMTRGDIGNYLGLTVETISRLLGRFQKSGLIEVKGKYIIIVDHHELNLLAGNARIAR
MGSDKIHHHHHHMRTHGWNSTCVNRPSGSANSRRLVAHGNGWQTIDMDFAARYVALGDSFTEGVGDDDPARPNGVRGWADRVAEQLGAADPAFGYANLAIRGRKLRQIMAEQVDAAIELKPTLVTIYAGANDILRPKVDIDDLLAEYDAGIRKLSATGATVVMFTGFDARGSKVFGTMRGRTAIYNELVRGIAGDHGALLVDYWRFSEYYDWGMWAKDRMHMSAAGHANMAKRVLTVLEHDHSIDVPPMTPVPELSRADAIRANARWVREFAGPWVVRRVTGKSSGDGLQPRYSQLTRL
MGSDKIHHHHHHMRVNSTDLQNAFGKYLSLLEKEDIIITKNGRSVAKLLRYNEPDYFLVHEESKNYKTTKRISYEEYMDLVDSSDQRYELIDGENYLLATPSFKHQVVVNEISGHFYNYFRGKSCRSLTSPFDVRLFGFATKFEEDPNVVQPDVVVICDLDKINEANKYEGIPSLIVEVLSPSTKGKDMVMKLNLYMKSGVLEYWVVDMESKSILQYSFSPERDIDSLKSLGEEDTIESSAFAGLKILLGEIFAEI
MGSDKIHHHHHHMRYQNTYAQLDTRLYHEQLPNPLDNPRAGHFNNQVADQLGWTKAADLMARWVEILGGQYVPAEFQPLSMAYAGHQFGQWAGQLGDGRGLLMTQVLDKNNQLQDLHLKGAGLTPYSRMGDGRAVLRSTIREYLCGHALTQLGIASSNALGFVVSDTKVRRERLEAGAALMRVADSHIRLGHVEWIASFAPDLLAEFTDYMIDTYYPECRDSEKPVLAFLQAVVERTARMIADWQLIGFAHGVMNTDNLSITGSTLDFGPFGFMERFNPAWINNHSDHSGRYAYQNQPAIGHWNLNVWLPHFMRLTQAGVTRETLADCLAPYEATFMQHYQQGLCRKLGLPHQRESLSLAFEWLTLLEDNLLDYTNSFRALLGLIAPNEHLYEQQLLATMTAELNPEAQQVWQVWSTRYLAQIQQVSITQAIEEMQASNPIYILRNSMAQRVIVAAEQGQFEELNRVFDLLAKPYTLQDSAIELDTLPPAPHAPQMPISCSS
MGSDKIHHHHHHMSAELNQPVPRPGILDIAAYVPGKEHVDGVAKVYKLSSNETPLGPSPKAIEAFSAAASHLEIYPDGQAIALRQAIADVHGLNIANILCGNGSDELLGLLCHVYLGAGDEAIITEHGFLVYKIQIMGAGATPVTVKEKDCVVDVDAILAAVTPKTKMVFLANPGNPTGTYVPVAEIRRLQAGLPKHVVLVLDAAYAEYVRKNDYEAGLELVSGNRNVVMTRTFSKVYGLAALRVGWMYAPVDIIDALNRVRGPFNMSAPAIAAGAAAIRDQAFVQKAVAHNALWMEKLVTTFTGLGLTVTPSVANFILIHFPDQDGKRATDADEFLSRRGYILRAVRGYGFPNALRMTVGSEEANLGVIAALTEFMGQA
MGSDKIHHHHHHMSAPTPLAEASQIPTIPALSPLTAKQSKGNFFSSNPISSFVVDTYKQLHSHRQSLELVNPGTVENLNKEVSRDVFLSQYFFTGLRADLNKAFSMNPAFQTSHTFSIGSQALPKYAFSALFANDNLFAQGNIDNDLSVSGRLNYGWDKKNISKVNLQISDGQPTMCQLEQDYQASDFSVNVKTLNPSFSEKGEFTGVAVASFLQSVTPQLALGLETLYSRTDGSAPGDAGVSYLTRYVSKKQDWIFSGQLQANGALIASLWRKVAQNVEAGIETTLQAGMVPITDPLMGTPIGIQPTVEGSTTIGAKYEYRQSVYRGTLDSNGKVACFLERKVLPTLSVLFCGEIDHFKNDTKIGCGLQFETAGNQELLMLQQGLDADGNPLQALPQL
MGSDKIHHHHHHMSASLQTADRVRRWRIEGELTTRTPLHMGSGSFEARQELRRAPQTDDIAKAKAVLLDSDQRPCLTGSGLKGAMLAWANAYLPDPERDRLLFGCEPDGDGKGQGGRLEFQTAFLSQNKENTSPSSSPTPFWMSDRRTDVDTGVRINRASGTALDKHLFYKEVVAPGTAFRMVLDLDLPACCTDKGHALVNRVLALLEAFNLSDDDRVPPLTLGAMTGRGHGRFAWRLTNLSRVTDASARTWIDKGAPGTWAAALTPVPDKGPWQTTAKATLEVVQSPATLVCEVTLTFDHRFLISEPARVVTEDEARTRSGKTRTAGIMPKVDGKGNAVLPTASIKGVLRSRAERILATLTGDASAFEHAPGRGPAGQDNPAADMMTDRCLPTSRLFGAASWRAALDVEPFRPLSGHTTVAHQELVAIDRFTGGVSGSAKYDIDAFHRPQFKGRLRLNLRRSRLEDVGLLVLLLRDLAEGDLSFGYGGTKGYGGTQAMVTVQVRGTTAGTQALPLPEETGGAGIDTPVSWSSIQDSALASPLREAVAAFRRLYCKGEAV
MGSDKIHHHHHHMSCSHEHESLLVTSPNKSAQAVADALEKHPITFSLPQQFYSDADVFQVEMEQIFYKEWLFVGITGEIPDNGNFITLDIGDNPITVIRDQNGEVRAFHNTCRHRGSKICLVKQGKVPKLVCPYHQWTYELDGNLLFAGTEMGDDFDKNDYGLHKVNCRVAGGYIFVSLSENPTNIDGFFDDLTHYLEPYDLDNCKVAVESTLIEDANWKLVIENNRECYHCSGNHPELLNTLLEWDDTEDPRASDEFKAQVAAKQAMWEAEGIPYKHVSHGHGLRNRIVRMPLLEGTVSMTIDGKAGCKKLMGRIKNPDLGSMRILHLPNSWSHAMGDHLIAFQVIPLGAQKTQVTTKWIVHKDAVEGVDYDVAQLRQVWDATNVQDRTLAENNQKGINSKAYQPGPYSTTFEFGVVNFIDWFSHTMQSNIKASAEKS
